Target: VEGF (hVEGF) (Homo sapiens, UniProt P15692-4 P15692-4:27-191)
Assay: ELISA; remarkable capture efficiency after 4 h at room temperature, PD-10 column filtration; but p70 (FIG. 9) reports OA captured little hVEGF independent of serum incubation time
Conditions: quantified with hVEGF ELISA kit (Komabiotech); chain copies: 2; hairpin
Method: To confirm the hVEGF capture ability of OA, AA, and CA, each prepared sample was mixed with hVEGF solution for 4 hours at room temperature, and the mixed solution was filtered through a PD-10 column (Sephadex G-25, GE Healthcare, Sweden). The amount of non-purified hVEGF was measured by the hVEGF enzyme-linked immunosorbent assay kit (ELISA kit, Komabiotech) according to the manufacturer's guidelines (absorbance measurement at 490 nm by VICTOR3 V™ (Multilabel Counter, Perkin Elmer, Wellesley, Mass., USA)). The hVEGF capture ability of other samples such as OSc, ASc, and CSc was measured in the same way, and the results are shown in FIG. 10.

Chain of VEGF (hVEGF) (P15692 other isoform, or with tags, fused parts or gaps): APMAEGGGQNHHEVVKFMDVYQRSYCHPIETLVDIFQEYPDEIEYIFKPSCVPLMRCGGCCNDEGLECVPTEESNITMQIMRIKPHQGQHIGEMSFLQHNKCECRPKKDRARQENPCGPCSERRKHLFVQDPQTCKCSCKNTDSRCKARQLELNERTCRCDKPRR

B1: OA (oligomeric hVEGF aptamer, Y_Vapt) (ssDNA)
DNA: AGCTTCAGGCGAGGAGCCCACCCCGTCTTCCAGACAAGAGTGCAGGGGTGGCGAGGAGCGGACA
B1: binds.
